Target: T1, wild-type human moesin (Moesin-WT) (human, UniProt P26038 2-577, pulled down with the anti-p-ERM antibody, i.e. the form with phosphorylated C-terminal threonine (Thr558 for moesin, as the filing names the site in paragraph 193))
T1 construct: also called pCDNA3-Moesin WT; wild type moesin
Experiment: anti-p-ERM IP and Western blot, transfected H522 cells
Excerpt: Both plasmids produce high levels of moesin proteins in the transfected cells (FIG. 5d).
Because p-ERM functions primarily through binding to F-actin and EBP50 (ERM-binding phosphoprotein 50) through their C-ERMAD and TERM domain (Fouassier, L., Yun, C. C., Fitz, J. G.& Doctor, R. B. Evidence for ezrin-radixin-moesin-binding phosphoprotein 50 (EBP50) self-association through PDZ-PDZ interactions. J Biol Chem. 275, 25039-25045 (2000); Turunen, O., Wahlström, T. & Vaheri, A. Ezrin has a COOH-terminal actin-binding site that is conserved in the ezrin protein family. J Cell Biol. 126, 1445-1453 (1994); Bretscher, A. et al. ERM-Merlin and EBP50 protein families in plasma membrane organization and function.

T1 sequence (P26038 2-577 limits assumed): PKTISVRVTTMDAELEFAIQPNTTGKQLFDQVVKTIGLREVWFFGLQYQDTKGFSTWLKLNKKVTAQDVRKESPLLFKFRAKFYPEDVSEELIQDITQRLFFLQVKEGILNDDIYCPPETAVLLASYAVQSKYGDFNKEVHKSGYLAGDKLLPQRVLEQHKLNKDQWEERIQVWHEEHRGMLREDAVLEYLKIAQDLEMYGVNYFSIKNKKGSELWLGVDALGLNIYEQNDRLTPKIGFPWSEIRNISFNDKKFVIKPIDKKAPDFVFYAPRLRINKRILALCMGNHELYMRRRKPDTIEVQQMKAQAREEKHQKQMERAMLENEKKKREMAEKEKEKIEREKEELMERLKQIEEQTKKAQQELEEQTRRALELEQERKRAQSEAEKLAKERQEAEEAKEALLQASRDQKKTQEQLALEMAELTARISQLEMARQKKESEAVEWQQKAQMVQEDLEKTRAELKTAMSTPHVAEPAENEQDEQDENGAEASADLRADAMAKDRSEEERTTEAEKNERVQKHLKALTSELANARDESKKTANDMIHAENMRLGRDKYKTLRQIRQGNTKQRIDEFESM

B1: ERM-binding phosphoprotein 50 (EBP50) (other, UniProt O14745 2-358, looked up)
chain: SADAAAGAPLPRLCCLEKGPNGYGFHLHGEKGKLGQYIRLVEPGSPAEKAGLLAGDRLVEVNGENVEKETHQQVVSRIRAALNAVRLLVVDPETDEQLQKLGVQVREELLRAQEAPGQAEPPAAAEVQGAGNENEPREADKSHPEQRELRPRLCTMKKGPSGYGFNLHSDKSKPGQFIRSVDPDSPAEASGLRAQDRIVEVNGVCMEGKQHGDVVSAIRAGGDETKLLVVDRETDEFFKKCRVIPSQEHLNGPLPVPFTNGEIQKENSREALAEAALESPRPALVRSASSDTSEELNSQDSPPKQDSTAPSSTSSSDPILDFNISLAMAKERAHQKRSSKRAPQMDWSKKNELFSNL
notes: Endogenous protein detected by Western blot (anti-EBP50, Clone 6/EBP50) in anti-p-ERM IP products
- binding result: binds

From patent US20180273941A1 (UNIVERSITY OF MARYLAND BALTIMORE, published 2018)
